From article PMC3753642
Read-outs that look alike come from different tables or passages of the source.

What was measured:
Hfq WT [1] = biological target: T1, Hfq WT (Escherichia coli, UniProt P0A6X3 1-102); experiment: fluorescence anisotropy
Hfq:R16A [2] = biological target: T2, Hfq:R16A (Escherichia coli, UniProt P0A6X3 1-102, R16A); experiment: fluorescence anisotropy
Hfq TM [3] = biological target: T3, Hfq TM (Escherichia coli, UniProt P0A6X3 1-102, R16A;R17A;R19D); experiment: fluorescence anisotropy
Hfq:S38W = Hfq:S38W (Escherichia coli, UniProt P0A6X3 1-102, S38W); experiment: Trp fluorescence quenching
Hfq WT [4] = biological target: T1, Hfq WT; experiment: fluorescence anisotropy; remark: listed apart in the source
Hfq:R16A,S65C-Cy3 = Hfq:R16A,S65C-Cy3 (Escherichia coli, UniProt P0A6X3 1-102, R16A;S65C); experiment: stopped-flow FRET
Hfq:R16A [5] = biological target: T2, Hfq:R16A; experiment: fluorescence anisotropy; remark: listed apart in the source
Hfq TM [6] = biological target: T3, Hfq TM; experiment: fluorescence anisotropy; remark: listed apart in the source

| Binder | Kd (Hfq WT [1]) [nM] | Kd (Hfq:R16A [2]) [nM] | binding result (Hfq:S38W) | other results |
| --- | --- | --- | --- | --- |
| AAAAAAAAAAAAAAAAAA (ssRNA) [A18] | 13.2 | 2.3 |  | Kd (Hfq TM [3]): 16.8 nM |
| CGAAUUUUUUAAGUGC (ssRNA) [D16 unlabeled] |  |  | binds |  |
| GUGGUCAGUCGAGUGGUUUUUU (ssRNA) [Oligo CU] |  | 0.07 | binds | Kd (Hfq WT [4]): 0.1 nM |
| GUGGUCAGUCGAGUGGAAAAAAAAAAAAAAAAAA (ssRNA) [Oligo CA] |  |  | binds |  |
| CGAAUUUUUUAAGUGC (ssRNA) [D16] | 22.5 |  |  | binding result (Hfq:R16A,S65C-Cy3): binds; Kd (Hfq:R16A [5]): 39.8 nM; Kd (Hfq TM [6]): 17.5 nM |
